Paper PMC5119886, “POWERDRESS interacts with HISTONE DEACETYLASE 9 to promote aging in Arabidopsis” (eLife, 2016)

Target: T1, HDA9-3xFLAG (HISTONE DEACETYLASE 9, pHDA9::HDA9-3xFLAG/hda9) (Arabidopsis thaliana, UniProt Q8H0W2 1-426)
T1 construct: Histone deacetylase 9 (HDA9), RPD3-type deacetylase, Arabidopsis thaliana; genomic DNA with its 1 kb promoter cloned into pEarleyGate302; Primers are in Supplementary file 1; also called HDA9-FLAG; source: Arabidopsis transgenic plants (native HDA9 promoter, hda9 background): in leaf extract for IP-MS; purified on anti-FLAG M2 beads with 3xFLAG peptide elution for the pull-down
T1 sequence (looked up): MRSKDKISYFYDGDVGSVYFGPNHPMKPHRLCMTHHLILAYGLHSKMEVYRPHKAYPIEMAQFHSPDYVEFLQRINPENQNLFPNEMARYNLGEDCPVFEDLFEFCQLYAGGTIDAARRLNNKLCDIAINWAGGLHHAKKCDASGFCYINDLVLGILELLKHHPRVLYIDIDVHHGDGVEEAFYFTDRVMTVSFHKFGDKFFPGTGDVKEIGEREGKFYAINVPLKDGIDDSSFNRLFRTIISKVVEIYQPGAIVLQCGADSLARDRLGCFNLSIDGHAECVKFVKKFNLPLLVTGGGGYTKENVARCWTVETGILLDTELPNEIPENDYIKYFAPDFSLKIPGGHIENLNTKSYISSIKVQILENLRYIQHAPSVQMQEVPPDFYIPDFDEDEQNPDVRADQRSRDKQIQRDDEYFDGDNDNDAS
Assay: pull-down; purified HDA9-FLAG incubated with GST-tagged protein in 20 mM Tris-HCl 8.0, 200 mM NaCl, 1 mM EDTA, 0.5% Nonidet P-40 for one hour, then Glutathione Sepharose 4B beads for one hour at 4°C; detected with anti-GST and anti-FLAG; two technical replicates
Details: both partners purified

B1: GST-WRKY53 (GST tagged full-length WRKY53) (natural protein, Arabidopsis thaliana, UniProt Q9SUP6 1-324, looked up)
chain: MEGRDMLSWEQKTLLSELINGFDAAKKLQARLREAPSPSSSFSSPATAVAETNEILVKQIVSSYERSLLLLNWSSSPSVQLIPTPVTVVPVANPGSVPESPASINGSPRSEEFADGGGSSESHHRQDYIFNSKKRKMLPKWSEKVRISPERGLEGPQDDVFSWRKYGQKDILGAKFPRSYYRCTHRSTQNCWATKQVQRSDGDATVFEVTYRGTHTCSQAITRTPPLASPEKRQDTRVKPAITQKPKDILESLKSNLTVRTDGLDDGKDVFSFPDTPPFYNYGTINGEFGHVESSPIFDVVDWFNPTVEIDTTFPAFLHESIYY
notes: WRKY53 transcription factor, Arabidopsis thaliana; full-length cDNA cloned into pGOOD (pGEX-6P modified by adding a 6XHIS tag at the C terminus); Primers are in Supplementary file 1; source: E. coli, induced with 200 uM IPTG for three hours at 37°C, purified
B1: binds.
